From patent US20180038858A1 (published 2018)
Bridge positions count the residues as written; N and C are the ends. * marks the point of attachment. Biotin = O=C1N[C@H]2[C@H](CS[C@H]2CCCCC(=O)*)N1

Experiments:
[1] = biological target: hCCR5 (human, UniProt P51681 1-352); experiment: cell-based or functional assay
[2] = biological target: T1, CCR1 on peripheral blood monocytes (human, UniProt P32246 1-355); experiment: flow cytometry, biotinylated chemokine (1 µM) detected with fluorophore-streptavidin, on blood monocytes of a sarcoidosis patient
T1 construct: whole, on cells; also called chemokine (C-C motif) receptor 1
T1 sequence (looked up): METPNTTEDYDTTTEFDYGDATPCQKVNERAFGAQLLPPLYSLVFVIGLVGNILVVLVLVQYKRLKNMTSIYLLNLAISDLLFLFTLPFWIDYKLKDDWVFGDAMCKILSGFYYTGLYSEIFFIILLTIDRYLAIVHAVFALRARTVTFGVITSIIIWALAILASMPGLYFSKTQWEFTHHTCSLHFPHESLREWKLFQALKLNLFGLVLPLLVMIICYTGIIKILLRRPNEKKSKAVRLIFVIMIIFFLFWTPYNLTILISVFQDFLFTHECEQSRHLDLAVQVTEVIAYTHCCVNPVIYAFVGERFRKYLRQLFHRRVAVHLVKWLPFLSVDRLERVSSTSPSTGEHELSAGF
Description: Peripheral blood from patients and healthy controls was collected in heparin tubes. The red blood cells were lysed using Fix Buffer (Phosphate Buffer Saline (PBS) citrate with 4% paraformaldehyde) for four minutes at 37° C. and Lysing buffer (PBS with 10 mM Tris and 160 mM NH4Cl, pH 7.5) for 15 min at 37° C. The cells were washed in PBS with 2% Bovine Growth Serum, incubated with 10% human serum 15 min at room temperature (RT) and stained with cell specific antibodies together with biotinylated chemokine (1 μM) or the corresponding chemokine receptor antibody at 4° C. for 30 min (Table 1). The biotinylated chemokine was detected via the interaction between biotin and a fluorophore conjugated Streptavidin. The samples were analysed by flow cytometry on a FACS Canto flow cytometer with the FACSDiva software (BD Biosciences).

hCCR5, sequence (P51681 whole entry): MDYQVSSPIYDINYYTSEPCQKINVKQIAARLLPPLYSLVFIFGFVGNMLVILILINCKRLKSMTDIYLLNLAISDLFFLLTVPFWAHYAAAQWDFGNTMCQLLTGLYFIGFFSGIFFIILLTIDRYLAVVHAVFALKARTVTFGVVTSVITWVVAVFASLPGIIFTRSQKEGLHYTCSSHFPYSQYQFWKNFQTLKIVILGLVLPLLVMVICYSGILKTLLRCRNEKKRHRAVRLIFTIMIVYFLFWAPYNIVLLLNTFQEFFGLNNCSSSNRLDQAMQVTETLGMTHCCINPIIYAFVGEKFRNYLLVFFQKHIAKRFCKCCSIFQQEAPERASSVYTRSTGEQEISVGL

B1: biotinRANTES (CCL5), RANTES derivatised at Lys(67) with Biotin (ligand)
chain: H-SPYSSDTTPCCFAYIARPLPRAHIKEYFYTSGKCSNPAVVFVTRKNRQVCANPEKKWVREYINSLEK(Biotin)S-OH
modifications: disulfide 10-34, 11-50
notes: Residues 1-68 of mature human RANTES; also called biotinylated RANTES; bRANTES
EC50, agonist activity in an Aequorin assay [1]: 500 pM
binding result [2]: binds
